# According to article PMC8596624:
# Target: UKPV, spike on pseudotyped lentivirus, Alpha (SARS-CoV-2 (B.1.1.7, Alpha)) (UniProt P0DTC2)
# Experiment: dot blot
sequence,measurement,value
TTCCGGTTAATTTATGCTCTACCCGTCCACCTACCGGAATTTTTTTTTTTTTTTTTTTTTTTTTTTTTTACGGGTTTGGCGTCGGGCCTGGCGGGGGGATAGTGCGGT [DSA1N5 (T30 linker)],Kd,2.3 pM
